What was measured:
[1] = molecular target: T1, TetR-EYFP-ZNF518B^878–1074 (human, UniProt Q9C0D4 878-1074); assay: fluorescence microscopy-based interaction-trap
T1 sequence: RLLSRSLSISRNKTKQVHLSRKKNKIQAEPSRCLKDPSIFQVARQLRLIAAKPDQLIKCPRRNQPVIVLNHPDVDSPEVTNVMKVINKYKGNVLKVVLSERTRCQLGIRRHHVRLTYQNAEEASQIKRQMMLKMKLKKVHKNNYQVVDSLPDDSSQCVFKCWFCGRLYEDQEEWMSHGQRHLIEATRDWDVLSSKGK

[2] = molecular target: T2, TetR-EYFP-ZNF518B^878–987 (human, UniProt Q9C0D4 878-987); assay: fluorescence microscopy-based interaction-trap
T2 sequence: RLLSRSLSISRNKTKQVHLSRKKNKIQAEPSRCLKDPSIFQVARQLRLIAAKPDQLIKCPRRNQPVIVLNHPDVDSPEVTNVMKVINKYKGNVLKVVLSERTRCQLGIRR

[3] = molecular target: T3, TetR-EYFP-ZNF518B^344–987 (human, UniProt Q9C0D4 344-987); assay: fluorescence microscopy-based interaction-trap
T3 sequence: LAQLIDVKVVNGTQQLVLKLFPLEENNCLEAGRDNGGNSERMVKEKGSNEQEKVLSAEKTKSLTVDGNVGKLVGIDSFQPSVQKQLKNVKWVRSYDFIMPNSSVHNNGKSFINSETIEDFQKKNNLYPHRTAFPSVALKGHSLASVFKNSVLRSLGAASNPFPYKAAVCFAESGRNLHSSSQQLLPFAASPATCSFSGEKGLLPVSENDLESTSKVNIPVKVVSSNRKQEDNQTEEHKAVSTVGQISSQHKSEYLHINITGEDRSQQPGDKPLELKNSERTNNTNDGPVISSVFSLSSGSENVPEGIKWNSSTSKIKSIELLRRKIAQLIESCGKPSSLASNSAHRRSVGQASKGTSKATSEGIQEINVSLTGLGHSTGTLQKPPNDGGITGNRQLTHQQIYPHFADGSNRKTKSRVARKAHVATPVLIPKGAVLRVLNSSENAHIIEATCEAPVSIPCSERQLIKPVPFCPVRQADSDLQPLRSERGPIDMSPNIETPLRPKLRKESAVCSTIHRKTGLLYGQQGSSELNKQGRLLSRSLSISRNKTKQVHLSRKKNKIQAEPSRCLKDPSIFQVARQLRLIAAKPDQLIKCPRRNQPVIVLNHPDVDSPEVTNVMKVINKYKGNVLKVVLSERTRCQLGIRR

[4] = molecular target: T4, TetR-EYFP-ZNF518B^344–1074 (human, UniProt Q9C0D4 344-1074); assay: fluorescence microscopy-based interaction-trap
T4 sequence: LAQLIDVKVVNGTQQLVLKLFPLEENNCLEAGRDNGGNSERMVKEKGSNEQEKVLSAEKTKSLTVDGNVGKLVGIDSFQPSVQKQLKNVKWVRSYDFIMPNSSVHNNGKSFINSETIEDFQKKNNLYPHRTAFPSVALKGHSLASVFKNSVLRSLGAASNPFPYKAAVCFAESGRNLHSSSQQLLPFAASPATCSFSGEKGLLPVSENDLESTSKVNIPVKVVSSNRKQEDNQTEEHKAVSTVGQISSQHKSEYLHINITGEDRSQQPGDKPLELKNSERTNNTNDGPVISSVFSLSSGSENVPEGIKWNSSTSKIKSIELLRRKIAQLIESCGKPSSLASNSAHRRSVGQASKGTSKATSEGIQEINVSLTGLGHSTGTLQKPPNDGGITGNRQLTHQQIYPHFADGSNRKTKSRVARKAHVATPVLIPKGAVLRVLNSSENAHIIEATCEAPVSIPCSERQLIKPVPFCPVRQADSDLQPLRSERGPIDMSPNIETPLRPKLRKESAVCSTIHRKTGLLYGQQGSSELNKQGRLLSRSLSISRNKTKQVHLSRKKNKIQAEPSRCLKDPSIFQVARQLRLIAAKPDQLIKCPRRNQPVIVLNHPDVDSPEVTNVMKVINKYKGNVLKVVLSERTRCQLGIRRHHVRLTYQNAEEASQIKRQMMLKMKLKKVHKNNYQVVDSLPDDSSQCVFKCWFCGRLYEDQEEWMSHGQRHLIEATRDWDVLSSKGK

[5] = molecular target: T5, TetR-EYFP-ZNF518B^555–1074 (human, UniProt Q9C0D4 555-1074); assay: fluorescence microscopy-based interaction-trap
T5 sequence: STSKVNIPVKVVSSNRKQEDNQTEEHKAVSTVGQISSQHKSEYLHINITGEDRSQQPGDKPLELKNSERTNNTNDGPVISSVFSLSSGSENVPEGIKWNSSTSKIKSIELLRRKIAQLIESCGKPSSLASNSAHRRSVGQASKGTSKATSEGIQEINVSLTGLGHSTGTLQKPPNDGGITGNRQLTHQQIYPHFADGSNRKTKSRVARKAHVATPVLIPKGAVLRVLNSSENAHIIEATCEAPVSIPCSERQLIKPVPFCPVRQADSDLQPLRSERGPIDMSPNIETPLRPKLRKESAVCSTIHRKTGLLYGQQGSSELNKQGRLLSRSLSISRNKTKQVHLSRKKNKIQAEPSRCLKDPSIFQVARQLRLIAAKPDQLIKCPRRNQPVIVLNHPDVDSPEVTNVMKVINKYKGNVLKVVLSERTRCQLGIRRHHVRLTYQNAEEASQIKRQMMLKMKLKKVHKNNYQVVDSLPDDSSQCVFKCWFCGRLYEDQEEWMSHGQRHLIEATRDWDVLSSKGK

[6] = molecular target: T6, TetR-EYFP-ZNF518B^770–987 (human, UniProt Q9C0D4 770-987); assay: fluorescence microscopy-based interaction-trap
T6 sequence: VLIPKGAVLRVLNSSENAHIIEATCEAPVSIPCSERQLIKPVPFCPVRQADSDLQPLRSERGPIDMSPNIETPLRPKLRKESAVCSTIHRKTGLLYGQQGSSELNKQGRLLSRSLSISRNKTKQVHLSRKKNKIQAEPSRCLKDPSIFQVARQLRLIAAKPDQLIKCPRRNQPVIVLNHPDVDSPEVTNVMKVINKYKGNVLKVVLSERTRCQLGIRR

[7] = molecular target: T7, HAT-MBP-ZNF518B^770–987 (human, UniProt Q9C0D4 770-987); assay: pull-down
T7 sequence: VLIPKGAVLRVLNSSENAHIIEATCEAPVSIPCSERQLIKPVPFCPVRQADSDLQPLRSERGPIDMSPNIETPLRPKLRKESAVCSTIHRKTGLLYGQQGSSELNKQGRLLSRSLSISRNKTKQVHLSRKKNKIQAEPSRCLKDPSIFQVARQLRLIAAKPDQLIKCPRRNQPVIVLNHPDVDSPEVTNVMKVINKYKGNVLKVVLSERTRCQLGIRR

[8] = molecular target: T8, TetR-EYFP-ZNF518B^WT (human, UniProt Q9C0D4 1-1074); assay: fluorescence microscopy-based interaction-trap
T8 sequence: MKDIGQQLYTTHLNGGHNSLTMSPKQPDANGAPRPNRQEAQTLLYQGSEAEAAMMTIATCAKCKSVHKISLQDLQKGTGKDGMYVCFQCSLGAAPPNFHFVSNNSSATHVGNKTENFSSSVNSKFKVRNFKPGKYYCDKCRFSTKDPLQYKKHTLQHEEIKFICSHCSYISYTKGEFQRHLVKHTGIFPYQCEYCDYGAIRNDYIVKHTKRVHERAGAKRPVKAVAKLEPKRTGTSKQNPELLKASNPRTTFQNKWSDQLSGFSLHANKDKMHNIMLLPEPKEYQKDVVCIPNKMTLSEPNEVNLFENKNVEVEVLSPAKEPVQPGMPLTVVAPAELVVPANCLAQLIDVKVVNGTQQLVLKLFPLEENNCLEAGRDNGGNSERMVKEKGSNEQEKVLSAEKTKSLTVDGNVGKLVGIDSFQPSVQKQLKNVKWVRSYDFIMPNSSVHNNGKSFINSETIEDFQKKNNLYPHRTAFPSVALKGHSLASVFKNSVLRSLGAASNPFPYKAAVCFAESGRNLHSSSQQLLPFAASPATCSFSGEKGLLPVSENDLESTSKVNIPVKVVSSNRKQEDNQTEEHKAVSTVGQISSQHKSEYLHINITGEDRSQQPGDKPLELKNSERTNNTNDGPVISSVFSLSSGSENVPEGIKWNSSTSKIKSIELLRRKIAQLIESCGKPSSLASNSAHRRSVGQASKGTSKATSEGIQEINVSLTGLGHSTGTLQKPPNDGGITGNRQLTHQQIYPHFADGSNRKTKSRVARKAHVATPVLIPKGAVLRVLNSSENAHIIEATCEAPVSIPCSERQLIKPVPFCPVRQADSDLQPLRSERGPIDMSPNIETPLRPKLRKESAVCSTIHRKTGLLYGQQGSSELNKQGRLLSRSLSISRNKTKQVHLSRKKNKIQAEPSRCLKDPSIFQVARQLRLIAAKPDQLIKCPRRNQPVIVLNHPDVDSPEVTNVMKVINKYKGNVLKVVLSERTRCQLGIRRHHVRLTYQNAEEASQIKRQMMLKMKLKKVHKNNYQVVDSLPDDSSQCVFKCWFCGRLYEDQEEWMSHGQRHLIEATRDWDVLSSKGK

Binder	% of cells with recruitment to alphoid^tetO [1]	% of cells with recruitment to alphoid^tetO [2]	% of cells with recruitment to alphoid^tetO [3]	% of cells with recruitment to alphoid^tetO [4]	% of cells with recruitment to alphoid^tetO [5]	% of cells with recruitment to alphoid^tetO [6]	binding result [7]	% of cells with recruitment to alphoid^tetO [8]
Halo-HP1γ (natural protein, Halo Tag TMR ligand on the Halo tag) not shown	> 75%	> 75%	> 75%	> 75%	> 75%	> 75%	–	–
His6-GST-HP1β (natural protein) not shown	–	–	–	–	–	–	binds	–
Halo-HP1β (natural protein, Halo Tag TMR ligand on the Halo tag) not shown	> 75%	> 75%	> 75%	> 75%	> 75%	> 75%	–	58%
His6-GST-HP1γ (natural protein) not shown	–	–	–	–	–	–	binds	–

Reference: doi:10.1101/2022.09.15.508097 (bioRxiv, 2022)
